Measured values from patent US20150274828A1 (SHANGHAI SERUM BIOTECHNOLOGY, published 2015).
Numbering of substitutions follows the chain as printed.

B1: Ame55 intact antibody (IgG1) (antibody, V domains shown)
VH: EVQLVQSGAEVKKPGESLKISCKGSGYSFTSYWIGWVRQMPGKGLEWMGIIYPGDSDTRYSPSFQGQVTISADKSISTAYLQWSSLKASDTAMYYCARGIIYPSNVAVWGQGTLVTVSS
VL: SYELTQPPSVSVAPGQTARITCSGDALGDKYASWYQQKPGQAPVLVIYEDSKRPSGIPERFSGSNSGNTATLTISGTQAEDEADYYCSVWDGDWGMPVFGGGTKLTVLG
notes: Variable regions cloned into vectors pABL and pABG1 and expressed in HEK293T as intact IgG1 with lambda light chain; also called Amet55; parent antibody Ame55
B2: Ame-9B (antibody, V domains shown)
VH: EVQLVESGGGLVQPGGSLRLSCAASGFTFSSYAMSWVRQAPGKGLEWVSAITGTGGETYYADSVKGRFTISRDNSKNTLYLQMNSLRAEDTAVYYCARGWSWTGVDPWGQGTLVTVSS
VL: B1 VL
notes: Expressed in HEK293, purified on Protein A; also called mutant Ame-9B
B3: Ame55 mutant, light chain 89S(A1) (antibody, V domains shown)
VH: B1 VH
VL: B1 VL with V89S
notes: Mutant of Ame55
B4: AmeA2C3 (the mutated light chain has Lys at site 26 and Ala at site 89) (antibody, V domains shown)
VH: B1 VH
VL: B1 VL with A26K, V89A
notes: Mutant of Ame55; also called 26K + 89A
B5: AmeA2C1 (the mutated light chain has Gly at site 26 and Ala at site 89) (antibody, V domains shown)
VH: B1 VH
VL: B1 VL with A26G, V89A
notes: Mutant of Ame55; also called 26G + 89A
B6: AmeA1C3 (the mutated light chain has Lys at site 26 and Ser at site 89) (antibody, V domains shown)
VH: B1 VH
VL: B1 VL with A26K, V89S
notes: Mutant of Ame55; also called 26K + 89S
B7: Ame55 mutant, light chain 97A (antibody, V domains shown)
VH: B1 VH
VL: B1 VL with P97A
notes: Mutant of Ame55
B8: AmeA1C1 (the mutated light chain has Gly at site 26 and Ser at site 89) (antibody, V domains shown)
VH: B1 VH
VL: B1 VL with A26G, V89S
notes: Mutant of Ame55; also called 26G + 89S
B9: Ame55 mutant, light chain G28P (antibody, V domains shown)
VH: B1 VH
VL: B1 VL with G28P
notes: Mutant of Ame55
B10: AmeA2 (Ame55 mutant, light chain 89A(A2)) (antibody, V domains shown)
VH: B1 VH
VL: B1 VL with V89A
notes: Mutant of Ame55
B11: Ame55 phage single chain antibody (scFv)
scFv: SYELTQPPSVSVAPGQTARITCSGDALGDKYASWYQQKPGQAPVLVIYEDSKRPSGIPERFSGSNSGNTATLTISGTQAEDEADYYCSVWDGDWGMPVFGGGTKLTVLGSGGSTITSYNVYYTKLSSSGSEVQLVQSGAEVKKPGESLKISCKGSGYSFTSYWIGWVRQMPGKGLEWMGIIYPGDSDTRYSPSFQGQVTISADKSISTAYLQWSSLKASDTAMYYCARGIIYPSNVAVWGQGTLVTVSS
notes: the phage coat fusion is not described; also called Ame55 phage antibody; Ame55 single chain antibody

What was measured:
[1] = molecular target: T1, Recombinant human epidermal growth factor (EGF) (human, UniProt P01133 971-1023); assay: ELISA, EGF coated at 1 µg/well, antibody without EGFR-Fc, HRP goat anti-human IgG
T1 construct: Coated on the ELISA plate; also called EGR
T1 sequence (P01133 971-1023 limits assumed): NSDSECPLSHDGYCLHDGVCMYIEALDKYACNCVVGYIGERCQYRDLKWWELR

[2] = molecular target: T2, EGFR on A431 cell surface (human, UniProt P00533 25-1210); assay: flow cytometry on A431 cells, antibody 0.03 µg/ml, FITC anti-human IgG
T2 construct: whole, on cells; also called natural EGFR on surface of A431 cell

[3] = molecular target: T3, EGFR-Fc fusion protein (recombinant EGFR extracellular region-Fc) (human, UniProt P00533 25-645); assay: BLI Fortebio, method of Example 5 (biotinylated EGFR-Fc on streptavidin sensor)
T3 construct: extracellular domain; not shown: Fc part supplied by vector pABG1

[4] = molecular target: T3, EGFR-Fc fusion protein (recombinant …); assay: BLI ForteBio QKe, biotinylated EGFR-Fc on streptavidin sensor, antibody 20 nM; fold reduction of affinity, parent Ame55 = 1;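 further: parent antibody affinity set as 1, with values giving the fold drop in affinity of each mutant antibody relative to that parent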
[5] = molecular target: T3, EGFR-Fc fusion protein (recombinant …); assay: BLI ForteBio QKe, biotinylated EGFR-Fc on streptavidin sensor
[6] = molecular target: T3, EGFR-Fc fusion protein (recombinant …); assay: phage ELISA, EGFR-Fc coated, anti-M13-HRP

Row | Binder | Affinity change [4] | further results
1 | B1 | – | binding result [1]: no binding; binding result [2]: binds
2 | B2 | – | fold decrease of affinity (against Ame55) [3]: ~6 times
3 | B3 | 0.5 fold | fold increase of affinity against parent antibody Ame55 [5]: 4 times
4 | B4 | < 0.1 fold | –
5 | B5 | < 0.2 fold | –
6 | B6 | < 0.2 fold | –
7 | B7 | > 10 fold | –
8 | B8 | < 0.3 fold | –
9 | B9 | > 100 fold | –
10 | B10 | 0.25 fold | –
11 | B11 | – | binding result [6]: binds
